Article PMC3506662, “The Peripheral Binding of 14-3-3γ to Membranes Involves Isoform-Specific Histidine Residues” (PLoS ONE, 2012)
Where no end group is shown, it is not given here. [ ]: non-standard residue; d: D form. pS = N[C@@H](COP(=O)(O)O)C(=O)O

Columns and labels:
human 14-3-3γ, wild-type [1] = target: T1, human 14-3-3γ, wild-type (human, UniProt P61981 2-247); test: differential scanning fluorimetry; d14-3-3γ titrated with peptide from a 0.21 mM stock; SYPRO Orange; 20 to 95°C at 2°C/min; shift of Tm fitted to equation 1; legend: 10 µM subunit in 10 mM Na-Hepes, pH 7.4, 150 mM NaCl; conditions: both partners purified
T1 construct: 14-3-3 protein gamma, human; d14-3-3γ is the same protein after extensive dialysis into phosphate-free 10 mM Na-Hepes, pH 7.4; also called wt-14-3-3γ; d14-3-3γ; source: E. coli (BL-21, codon+), GST fusion purified on glutathione-Sepharose 4B, cleaved by thrombin, further purified
T1 sequence: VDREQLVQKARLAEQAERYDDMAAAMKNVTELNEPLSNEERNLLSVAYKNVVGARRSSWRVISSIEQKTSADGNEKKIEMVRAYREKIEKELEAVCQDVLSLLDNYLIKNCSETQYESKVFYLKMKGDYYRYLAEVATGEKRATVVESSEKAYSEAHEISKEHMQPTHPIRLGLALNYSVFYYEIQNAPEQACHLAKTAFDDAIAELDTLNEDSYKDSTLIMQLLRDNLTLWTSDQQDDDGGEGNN

human 14-3-3γ, wild-type [2] = target: T1, human 14-3-3γ, wild-type; test: SPR; data not shown; Biacore 3000, 25°C; wt-d14-3-3γ immobilised by amine coupling on CM5 (about 5 000 RU); THp-(1-43) injected in 10 mM Na-Hepes, pH 7.4, 0.005% P20; 0 mM salt; conditions: both partners purified

Kd (human 14-3-3γ, wild-type [1]): ~190 nM | Kd (human 14-3-3γ, wild-type [2]): ~220 nM
B1: THp-(1-43), Ser19-phosphorylated N-terminal peptide of human tyrosine hydroxylase isoform 1 (peptide)
peptide: MPTPDATTPQAKGFRRAV[pS]ELDAKQAEAIMSPRFIGRRQSLIE
notes: also called phosphopeptide; source: synthetic peptide (CPC Scientific), approx. 90% purity
